According to the supplement of paper PMC9233669:
Fewer inactive variants are shown than the library holds.

Tests used:
[1] = system: biotinyl-Phe-oxazolone; experiment: self-aminoacylation, catalytic enhancement (BFO) (fold over background); higher = more active; k-Seq, kA / k0A0; sequences stand for … in GGGAAUGGAUCCACAUCUACGAAUUC…UUCACUGCAGACUUGACGAAGCUG
Summary of the method: (§1)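 Mutagenized RNA pools with a 21-nt variable region (0.43 μM) reacted with each biotinyl-aminoacyl-oxazolone at 2–1250 μM. Reactions ran in 50 μL HEPES/NaCl/KCl/MgCl2/CaCl2 buffer with 5% acetonitrile, pH 6.9–7.0, for 90 minutes at room temperature. Streptavidin-captured RNA was quantified by triplicate qPCR and Illumina sequencing, and per-sequence fraction reacted was fit to a pseudo-first-order model with 1000 bootstraps. Catalytic enhancement is median kA divided by the uncatalyzed rate, the low-activity peak of a bimodal Gaussian fit.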

[2] = system: biotinyl-Ile-oxazolone; experiment: self-aminoacylation, catalytic enhancement (BIO) (fold over background); higher = more active; k-Seq, kA / k0A0; sequences stand for … in GGGAAUGGAUCCACAUCUACGAAUUC…UUCACUGCAGACUUGACGAAGCUG
Summary of the method: as §1

[3] = system: biotinyl-Leu-oxazolone; experiment: self-aminoacylation, catalytic enhancement (BLO) (fold over background); higher = more active; k-Seq, kA / k0A0; sequences stand for … in GGGAAUGGAUCCACAUCUACGAAUUC…UUCACUGCAGACUUGACGAAGCUG
Summary of the method: as §1

[4] = system: biotinyl-Met-oxazolone; experiment: self-aminoacylation, catalytic enhancement (BMO) (fold over background); higher = more active; k-Seq, kA / k0A0; sequences stand for … in GGGAAUGGAUCCACAUCUACGAAUUC…UUCACUGCAGACUUGACGAAGCUG
Summary of the method: as §1

[5] = system: biotinyl-Trp-oxazolone; experiment: self-aminoacylation, catalytic enhancement (BWO) (fold over background); higher = more active; k-Seq, kA / k0A0; sequences stand for … in GGGAAUGGAUCCACAUCUACGAAUUC…UUCACUGCAGACUUGACGAAGCUG
Summary of the method: as §1

[6] = system: biotinyl-Val-oxazolone; experiment: self-aminoacylation, catalytic enhancement (BVO) (fold over background); higher = more active; k-Seq, kA / k0A0; sequences stand for … in GGGAAUGGAUCCACAUCUACGAAUUC…UUCACUGCAGACUUGACGAAGCUG
Summary of the method: as §1

Q: For “AAGUUUGCUUAUAGUGGCAAG [Fam3.1 aminoacylation ribozyme variant]”, which self-aminoacylation [1] is on record?
A: 1.38

Q: And the self-aminoacylation [2]?
A: 0.789

Q: What about the self-aminoacylation [3] of the same sequence?
A: 0.644

Q: What about the self-aminoacylation [4] of the same sequence?
A: 0.861

Q: What about the self-aminoacylation [5] of the same sequence?
A: 0.94

Q: What about the self-aminoacylation [6] of the same sequence?
A: 0.711

Q: “CAGUUUGCUAAAAGUCGCAAG [Fam3.1 aminoacylation ribozyme variant]” was tested. Which self-aminoacylation [1] did it give?
A: 1.86

Q: And the self-aminoacylation [2]?
A: 1.46

Q: And the self-aminoacylation [3]?
A: 1.5

Q: What about the self-aminoacylation [4] of the same sequence?
A: 1.64

Q: What about the self-aminoacylation [5] of the same sequence?
A: 1.3

Q: What about the self-aminoacylation [6] of the same sequence?
A: 1.4

Q: “CCACACUACAAGCAAUCGCUC [Fam1B.1 aminoacylation ribozyme variant]” was tested. Which self-aminoacylation [1] did it give?
A: 1.2

Q: What about the self-aminoacylation [2] of the same sequence?
A: 1.22

Q: What about the self-aminoacylation [3] of the same sequence?
A: 1.31

Q: And the self-aminoacylation [4]?
A: 1.59

Q: And the self-aminoacylation [5]?
A: 1.32

Q: And the self-aminoacylation [6]?
A: 1.29

Q: Which self-aminoacylation [1] does the source give for “CCACACUUCAAGCCAUUGGUC [Fam1B.1 aminoacylation ribozyme variant]” here?
A: 0.631

Q: And the self-aminoacylation [2]?
A: 0.787

Q: And the self-aminoacylation [3]?
A: 0.848

Q: What about the self-aminoacylation [4] of the same sequence?
A: 0.874

Q: And the self-aminoacylation [5]?
A: 0.734

Q: What about the self-aminoacylation [6] of the same sequence?
A: 1.09

Q: With “AAGUUUGCUUCUAGUCGCAAG [Fam3.1 aminoacylation ribozyme variant]” as the sequence, how does the self-aminoacylation [1] read?
A: 1.54

Q: And the self-aminoacylation [2]?
A: 1.39

Q: What about the self-aminoacylation [3] of the same sequence?
A: 1.2

Q: What about the self-aminoacylation [4] of the same sequence?
A: 0.998

Q: What about the self-aminoacylation [5] of the same sequence?
A: 1.11

Q: What about the self-aminoacylation [6] of the same sequence?
A: 1.23

Q: Which self-aminoacylation [1] does the source give for “AUUACCAUGGUCUUCGAGUGA [Fam2.1 aminoacylation ribozyme variant]” here?
A: 28

Q: And the self-aminoacylation [2]?
A: 3.56

Q: What about the self-aminoacylation [3] of the same sequence?
A: 6.61

Q: What about the self-aminoacylation [4] of the same sequence?
A: 5.47

Q: And the self-aminoacylation [5]?
A: 7.3

Q: And the self-aminoacylation [6]?
A: 3.35

Q: How did the self-aminoacylation [1] turn out when “CCACACUUCAACCAAUCGGUG [Fam1B.1 aminoacylation ribozyme variant]” was run?
A: 4.06

Q: And the self-aminoacylation [2]?
A: 3.05

Q: And the self-aminoacylation [3]?
A: 6.37

Q: And the self-aminoacylation [4]?
A: 3.66

Q: What about the self-aminoacylation [5] of the same sequence?
A: 5.38

Q: What about the self-aminoacylation [6] of the same sequence?
A: 2.91

Q: What does the source list for “AUUACCCUUCUCAUCGAGUGA [Fam2.1 aminoacylation ribozyme variant]”?
A: self-aminoacylation [1]: 30.8; self-aminoacylation [2]: 3.51; self-aminoacylation [3]: 6.53; self-aminoacylation [4]: 6.6; self-aminoacylation [5]: 9.57; self-aminoacylation [6]: 3.65

Q: For “CAACACUUGAAGCAAUCGGUC [Fam1B.1 aminoacylation ribozyme variant]”, which self-aminoacylation [1] is on record?
A: 0.601

Q: What about the self-aminoacylation [2] of the same sequence?
A: 0.911

Q: And the self-aminoacylation [3]?
A: 0.842

Q: And the self-aminoacylation [4]?
A: 0.731

Q: What about the self-aminoacylation [5] of the same sequence?
A: 0.696

Q: And the self-aminoacylation [6]?
A: 0.828

Q: Which results are given for “AAGUUUGCUAAUAGUCGUAAA [Fam3.1 aminoacylation ribozyme variant]”?
A: self-aminoacylation [1]: 2.23; self-aminoacylation [2]: 0.909; self-aminoacylation [3]: 0.826; self-aminoacylation [4]: 0.973; self-aminoacylation [5]: 1.01; self-aminoacylation [6]: 1.04

Q: Which self-aminoacylation [1] does the source give for “CCACUUCAAACAAUCGGUGUG [Fam1A.1 aminoacylation ribozyme variant]” here?
A: 12.5

Q: What about the self-aminoacylation [2] of the same sequence?
A: 1.13

Q: And the self-aminoacylation [3]?
A: 2.34

Q: What about the self-aminoacylation [4] of the same sequence?
A: 1.79

Q: And the self-aminoacylation [5]?
A: 9.94

Q: What about the self-aminoacylation [6] of the same sequence?
A: 1.33

Q: “AAGUUUGCUAAUAGUCGCCAG [Fam3.1 aminoacylation ribozyme variant]” was tested. Which self-aminoacylation [1] did it give?
A: 1.41

Q: What about the self-aminoacylation [2] of the same sequence?
A: 1.02

Q: And the self-aminoacylation [3]?
A: 0.962

Q: And the self-aminoacylation [4]?
A: 1.03

Q: What about the self-aminoacylation [5] of the same sequence?
A: 1.39

Q: And the self-aminoacylation [6]?
A: 0.997

Q: How did the self-aminoacylation [1] turn out when “AUUACCCUGGUCAUCGAGUUG [Fam2.1 aminoacylation ribozyme variant]” was run?
A: 3.62

Q: And the self-aminoacylation [2]?
A: 1.27

Q: What about the self-aminoacylation [3] of the same sequence?
A: 2.04

Q: And the self-aminoacylation [4]?
A: 2.14

Q: What about the self-aminoacylation [5] of the same sequence?
A: 1.47

Q: What about the self-aminoacylation [6] of the same sequence?
A: 1.75

Q: How did the self-aminoacylation [1] turn out when “AAGUUUGCUAAUAGUCGCCGG [Fam3.1 aminoacylation ribozyme variant]” was run?
A: 10.5

Q: What about the self-aminoacylation [2] of the same sequence?
A: 3.08

Q: What about the self-aminoacylation [3] of the same sequence?
A: 3.53

Q: What about the self-aminoacylation [4] of the same sequence?
A: 5.01

Q: And the self-aminoacylation [5]?
A: 5.77

Q: And the self-aminoacylation [6]?
A: 4.14

Q: Which self-aminoacylation [1] does the source give for “CCACACUCCAAGCACUCGGUC [Fam1B.1 aminoacylation ribozyme variant]” here?
A: 0.642

Q: And the self-aminoacylation [2]?
A: 1.35

Q: And the self-aminoacylation [3]?
A: 0.768

Q: And the self-aminoacylation [4]?
A: 1.32

Q: What about the self-aminoacylation [5] of the same sequence?
A: 0.831

Q: What about the self-aminoacylation [6] of the same sequence?
A: 1.24

Q: Which results are given for “AGUACCCCGGUCAUCGAGUGA [Fam2.1 aminoacylation ribozyme variant]”?
A: self-aminoacylation [1]: 43.9; self-aminoacylation [2]: 3.7; self-aminoacylation [3]: 6.8; self-aminoacylation [4]: 5.52; self-aminoacylation [5]: 7.21; self-aminoacylation [6]: 3.75

Q: What does the source list for “CCAUACUUCAAGCAAUCGGUU [Fam1B.1 aminoacylation ribozyme variant]”?
A: self-aminoacylation [1]: 3.48; self-aminoacylation [2]: 1.61; self-aminoacylation [3]: 1.61; self-aminoacylation [4]: 1.17; self-aminoacylation [5]: 2.98; self-aminoacylation [6]: 1.71

Q: Which self-aminoacylation [1] does the source give for “AUUCACCUAGGUCUUCUGGUG [Fam2.2 aminoacylation ribozyme variant]” here?
A: 58.1

Q: And the self-aminoacylation [2]?
A: 3.9

Q: And the self-aminoacylation [3]?
A: 9.28

Q: What about the self-aminoacylation [4] of the same sequence?
A: 6.75

Q: What about the self-aminoacylation [5] of the same sequence?
A: 5.92

Q: What about the self-aminoacylation [6] of the same sequence?
A: 3.86

Q: How did the self-aminoacylation [1] turn out when “AUAACCCUGGUCACCGAGUGA [Fam2.1 aminoacylation ribozyme variant]” was run?
A: 44

Q: What about the self-aminoacylation [2] of the same sequence?
A: 4.78

Q: And the self-aminoacylation [3]?
A: 9.68

Q: And the self-aminoacylation [4]?
A: 8.82

Q: And the self-aminoacylation [5]?
A: 10.2

Q: And the self-aminoacylation [6]?
A: 4.06

Q: What does the source list for “AAGAUUGCUAAUAGUCGCGAG [Fam3.1 aminoacylation ribozyme variant]”?
A: self-aminoacylation [1]: 1.27; self-aminoacylation [2]: 1.3; self-aminoacylation [3]: 1.1; self-aminoacylation [4]: 1.94; self-aminoacylation [5]: 1.1; self-aminoacylation [6]: 1.44

Q: “CCACACUUCAAGCAUUCGGAC [Fam1B.1 aminoacylation ribozyme variant]” was tested. Which self-aminoacylation [1] did it give?
A: 0.829

Q: And the self-aminoacylation [2]?
A: 1.35

Q: And the self-aminoacylation [3]?
A: 0.681

Q: What about the self-aminoacylation [4] of the same sequence?
A: 0.977

Q: And the self-aminoacylation [5]?
A: 0.71

Q: And the self-aminoacylation [6]?
A: 1.29

Q: For “CUACUUCCAACAAUCGAUCUG [Fam1A.1 aminoacylation ribozyme variant]”, which self-aminoacylation [1] is on record?
A: 0.773

Q: And the self-aminoacylation [2]?
A: 0.747

Q: And the self-aminoacylation [3]?
A: 0.664

Q: What about the self-aminoacylation [4] of the same sequence?
A: 0.494

Q: What about the self-aminoacylation [5] of the same sequence?
A: 0.608

Q: What about the self-aminoacylation [6] of the same sequence?
A: 0.549

Q: Which results are given for “AUUCCCCUGGUCACCGAGUGA [Fam2.1 aminoacylation ribozyme variant]”?
A: self-aminoacylation [1]: 73.1; self-aminoacylation [2]: 5.93; self-aminoacylation [3]: 11.1; self-aminoacylation [4]: 9.9; self-aminoacylation [5]: 12.6; self-aminoacylation [6]: 5.07
